From US20130157935A1 (ZEALAND PHARMA A S, published 2013)
Starred links: 1 amine or outer side, 2 acyl side, 3 side chain; linkers in the order of their positions; H or OH if unused. Groups on a side chain read outwards from the residue. *: point of attachment. γGlu = O=C(O)[C@H](CCC(=O)[*:2])N[*:1]; Palmitoyl = CCCCCCCCCCCCCCCC(=O)*

Columns and labels:
[1] = target: human glucagon-like peptide 1 receptor (GLP-1 R) (human, UniProt P43220 24-463); experiment: cell-based or functional assay
[2] = target: human glucagon receptor (Glucagon-R) (human, UniProt P47871 26-477); experiment: cell-based or functional assay
Sequence of human glucagon receptor (Glucagon-R) (P47871 26-477): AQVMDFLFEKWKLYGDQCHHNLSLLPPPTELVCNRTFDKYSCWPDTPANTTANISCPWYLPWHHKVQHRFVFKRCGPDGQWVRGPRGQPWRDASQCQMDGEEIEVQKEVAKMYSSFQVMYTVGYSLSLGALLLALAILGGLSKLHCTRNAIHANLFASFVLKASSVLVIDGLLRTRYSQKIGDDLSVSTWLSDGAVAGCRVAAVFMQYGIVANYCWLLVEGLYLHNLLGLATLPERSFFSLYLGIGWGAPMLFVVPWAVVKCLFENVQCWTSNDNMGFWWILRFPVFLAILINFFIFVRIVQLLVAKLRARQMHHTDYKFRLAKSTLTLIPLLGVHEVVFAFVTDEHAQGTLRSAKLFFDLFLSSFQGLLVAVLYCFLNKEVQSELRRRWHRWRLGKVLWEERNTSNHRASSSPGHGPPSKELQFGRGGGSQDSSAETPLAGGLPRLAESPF

Binder: H-HSQGTFTSDYSKYLDEK([γGlu-Palmitoyl])RAKDFIEWLLSA-NH2 [Compound 6: H-HSQGTFTSDYSKYLDE-K(Hexadecanoyl-isoGlu)-RAKDFIEWLLSA-NH2]
- GLP-1R EC50 (nM), cAMP formation in HEK293 cells expressing human GLP-1-R [1]: 0.13 nM

B1: Compound 5: H-HSQGTFTSDYSKYLD-K(Hexadecanoyl-isoGlu)-RRAKDFIEWLLSA-NH2 (peptide)
peptide: HSQGTFTSDYSKYLDXRRAKDFIEWLLSA
HELM: PEPTIDE1{H.S.Q.G.T.F.T.S.D.Y.S.K.Y.L.D.K.R.R.A.K.D.F.I.E.W.L.L.S.A.[am]}|PEPTIDE2{[CCCCCCCCCCCCCCCC(=O)[*:2]].[gGlu]}$PEPTIDE1,PEPTIDE2,16:R3-2:R2$$$V2.0
SMILES: CCCCCCCCCCCCCCCC(=O)N[C@@H](CCC(=O)NCCCC[C@H](NC(=O)[C@H](CC(=O)O)NC(=O)[C@H](CC(C)C)NC(=O)[C@H](Cc1ccc(O)cc1)NC(=O)[C@H](CCCCN)NC(=O)[C@H](CO)NC(=O)[C@H](Cc1ccc(O)cc1)NC(=O)[C@H](CC(=O)O)NC(=O)[C@H](CO)NC(=O)[C@@H](NC(=O)[C@H](Cc1ccccc1)NC(=O)[C@@H](NC(=O)CNC(=O)[C@H](CCC(N)=O)NC(=O)[C@H](CO)NC(=O)[C@@H](N)Cc1c[nH]cn1)[C@@H](C)O)[C@@H](C)O)C(=O)N[C@@H](CCCNC(=N)N)C(=O)N[C@@H](CCCNC(=N)N)C(=O)N[C@@H](C)C(=O)N[C@@H](CCCCN)C(=O)N[C@@H](CC(=O)O)C(=O)N[C@@H](Cc1ccccc1)C(=O)N[C@H](C(=O)N[C@@H](CCC(=O)O)C(=O)N[C@@H](Cc1c[nH]c2ccccc12)C(=O)N[C@@H](CC(C)C)C(=O)N[C@@H](CC(C)C)C(=O)N[C@@H](CO)C(=O)N[C@@H](C)C(N)=O)[C@@H](C)CC)C(=O)O
- GLP-1R EC50 (nM), cAMP formation in HEK293 cells expressing human GLP-1-R [1]: 0.35 nM
- GluR EC50 (nM), cAMP formation in HEK293 cells expressing human Glucagon-R [2]: 0.19 nM

B2: Compound 7: H-H-Aib-QGTFTSDYSKYLDE-K(Hexadecanoyl-isoGlu)-RAKDFIEWLLSA-NH2 (peptide)
peptide: HXQGTFTSDYSKYLDEXRAKDFIEWLLSA
HELM: PEPTIDE1{H.[Aib].Q.G.T.F.T.S.D.Y.S.K.Y.L.D.E.K.R.A.K.D.F.I.E.W.L.L.S.A.[am]}|PEPTIDE2{[CCCCCCCCCCCCCCCC(=O)[*:2]].[gGlu]}$PEPTIDE1,PEPTIDE2,17:R3-2:R2$$$V2.0
SMILES: CCCCCCCCCCCCCCCC(=O)N[C@@H](CCC(=O)NCCCC[C@H](NC(=O)[C@H](CCC(=O)O)NC(=O)[C@H](CC(=O)O)NC(=O)[C@H](CC(C)C)NC(=O)[C@H](Cc1ccc(O)cc1)NC(=O)[C@H](CCCCN)NC(=O)[C@H](CO)NC(=O)[C@H](Cc1ccc(O)cc1)NC(=O)[C@H](CC(=O)O)NC(=O)[C@H](CO)NC(=O)[C@@H](NC(=O)[C@H](Cc1ccccc1)NC(=O)[C@@H](NC(=O)CNC(=O)[C@H](CCC(N)=O)NC(=O)C(C)(C)NC(=O)[C@@H](N)Cc1c[nH]cn1)[C@@H](C)O)[C@@H](C)O)C(=O)N[C@@H](CCCNC(=N)N)C(=O)N[C@@H](C)C(=O)N[C@@H](CCCCN)C(=O)N[C@@H](CC(=O)O)C(=O)N[C@@H](Cc1ccccc1)C(=O)N[C@H](C(=O)N[C@@H](CCC(=O)O)C(=O)N[C@@H](Cc1c[nH]c2ccccc12)C(=O)N[C@@H](CC(C)C)C(=O)N[C@@H](CC(C)C)C(=O)N[C@@H](CO)C(=O)N[C@@H](C)C(N)=O)[C@@H](C)CC)C(=O)O
- GLP-1R EC50 (nM), cAMP formation in HEK293 cells expressing human GLP-1-R [1]: 0.1 nM
- GluR EC50 (nM), cAMP formation in HEK293 cells expressing human Glucagon-R [2]: 0.16 nM

B3: Compound 4: H-HSQGTFTSDYSKYLDERRAKDFIEWLL-K(Hexadecanoyl-isoGlu)-A-NH2 (peptide)
peptide: HSQGTFTSDYSKYLDERRAKDFIEWLLXA
HELM: PEPTIDE1{H.S.Q.G.T.F.T.S.D.Y.S.K.Y.L.D.E.R.R.A.K.D.F.I.E.W.L.L.K.A.[am]}|PEPTIDE2{[CCCCCCCCCCCCCCCC(=O)[*:2]].[gGlu]}$PEPTIDE1,PEPTIDE2,28:R3-2:R2$$$V2.0
SMILES: CCCCCCCCCCCCCCCC(=O)N[C@@H](CCC(=O)NCCCC[C@H](NC(=O)[C@H](CC(C)C)NC(=O)[C@H](CC(C)C)NC(=O)[C@H](Cc1c[nH]c2ccccc12)NC(=O)[C@H](CCC(=O)O)NC(=O)[C@@H](NC(=O)[C@H](Cc1ccccc1)NC(=O)[C@H](CC(=O)O)NC(=O)[C@H](CCCCN)NC(=O)[C@H](C)NC(=O)[C@H](CCCNC(=N)N)NC(=O)[C@H](CCCNC(=N)N)NC(=O)[C@H](CCC(=O)O)NC(=O)[C@H](CC(=O)O)NC(=O)[C@H](CC(C)C)NC(=O)[C@H](Cc1ccc(O)cc1)NC(=O)[C@H](CCCCN)NC(=O)[C@H](CO)NC(=O)[C@H](Cc1ccc(O)cc1)NC(=O)[C@H](CC(=O)O)NC(=O)[C@H](CO)NC(=O)[C@@H](NC(=O)[C@H](Cc1ccccc1)NC(=O)[C@@H](NC(=O)CNC(=O)[C@H](CCC(N)=O)NC(=O)[C@H](CO)NC(=O)[C@@H](N)Cc1c[nH]cn1)[C@@H](C)O)[C@@H](C)O)[C@@H](C)CC)C(=O)N[C@@H](C)C(N)=O)C(=O)O
- GLP-1R EC50 (nM), cAMP formation in HEK293 cells expressing human GLP-1-R [1]: 0.31 nM
- GluR EC50 (nM), cAMP formation in HEK293 cells expressing human Glucagon-R [2]: 0.25 nM

B4: Compound 2: H-HSQGTFTSDYSKYLDERRAKDFIEWL-K(Hexadecanoyl-isoGlu)-SA-NH2 (peptide)
peptide: HSQGTFTSDYSKYLDERRAKDFIEWLXSA
HELM: PEPTIDE1{H.S.Q.G.T.F.T.S.D.Y.S.K.Y.L.D.E.R.R.A.K.D.F.I.E.W.L.K.S.A.[am]}|PEPTIDE2{[CCCCCCCCCCCCCCCC(=O)[*:2]].[gGlu]}$PEPTIDE1,PEPTIDE2,27:R3-2:R2$$$V2.0
SMILES: CCCCCCCCCCCCCCCC(=O)N[C@@H](CCC(=O)NCCCC[C@H](NC(=O)[C@H](CC(C)C)NC(=O)[C@H](Cc1c[nH]c2ccccc12)NC(=O)[C@H](CCC(=O)O)NC(=O)[C@@H](NC(=O)[C@H](Cc1ccccc1)NC(=O)[C@H](CC(=O)O)NC(=O)[C@H](CCCCN)NC(=O)[C@H](C)NC(=O)[C@H](CCCNC(=N)N)NC(=O)[C@H](CCCNC(=N)N)NC(=O)[C@H](CCC(=O)O)NC(=O)[C@H](CC(=O)O)NC(=O)[C@H](CC(C)C)NC(=O)[C@H](Cc1ccc(O)cc1)NC(=O)[C@H](CCCCN)NC(=O)[C@H](CO)NC(=O)[C@H](Cc1ccc(O)cc1)NC(=O)[C@H](CC(=O)O)NC(=O)[C@H](CO)NC(=O)[C@@H](NC(=O)[C@H](Cc1ccccc1)NC(=O)[C@@H](NC(=O)CNC(=O)[C@H](CCC(N)=O)NC(=O)[C@H](CO)NC(=O)[C@@H](N)Cc1c[nH]cn1)[C@@H](C)O)[C@@H](C)O)[C@@H](C)CC)C(=O)N[C@@H](CO)C(=O)N[C@@H](C)C(N)=O)C(=O)O
- GLP-1R EC50 (nM), cAMP formation in HEK293 cells expressing human GLP-1-R [1]: 3.09 nM
- GluR EC50 (nM), cAMP formation in HEK293 cells expressing human Glucagon-R [2]: 0.81 nM

Binder: HSQGTFTSDYSKYLDERRAXDFIEWLLSA (K(Hexadecanoyl-isoGlu) at position 20; C-terminal amide (NH2)) [Compound 3: H-HSQGTFTSDYSKYLDERRA-K(Hexadecanoyl-isoGlu)-DFIEWLLSA-NH2]
- GLP-1R EC50 (nM), cAMP formation in HEK293 cells expressing human GLP-1-R [1]: 0.64 nM
- GluR EC50 (nM), cAMP formation in HEK293 cells expressing human Glucagon-R [2]: 0.6 nM
